Results from the supplement of paper PMC6757056.
± gives the standard deviation of the averaged measurements.

B1: library; a variant is named by its letters at N, in order (parent)
chain: GCUGUCACCGGUGCUUGGUACGUUAUAUUCAGCCGGUCUGAUGAGUCUNNNNNNAGACGAAACAGC

Assays:
(6R,S)-folinic acid [1] = variants of: B1; assay: normalized RNA/DNA level without ligand (relative to sTRSVctl = 100) (log10 (% of sTRSVctl)); HEK293T overexpressing SLC46A1; higher = less ribozyme self-cleavage, higher mRNA level; conditions: without (6R,S)-folinic acid; ligand present: no
In short: (§1)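 HEK293T cells were transfected with library plasmids carrying ribozyme switches linked to an mCherry reporter, or an eGFP reporter in some ligand experiments, at 4 µg per well of a 6-well plate, with any ligand added 1 h beforehand. After 72 h, total RNA was extracted with EDTA, reverse-transcribed, amplified, barcoded and sequenced. RNA level was defined as RNA reads over DNA reads, normalized to a spiked-in non-cleaving sequence or to the top-ranked sequences. That value was multiplied by 100 and converted to log10, the top set was 25 sequences, and only sequences with ≥100 DNA reads were retained.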

(6R,S)-folinic acid [2] = variants of: B1; assay: normalized RNA/DNA level with ligand (relative to sTRSVctl = 100) (log10 (% of sTRSVctl)); HEK293T overexpressing SLC46A1; ligand concentration (+) RNA-Seq: 6 mM; higher = less ribozyme self-cleavage, higher mRNA level; conditions: with (6R,S)-folinic acid; ligand present: yes
In short: as §1

For GCUGUCACCGGUGCUUGGUACGUUAUAUUCAGCCGGUCUGAUGAGUCUCGGUCGAGACGAAACAGC [CGGUCG], the “normalized RNA/DNA level without ligand (log10)” value ((6R,S)-folinic acid [1]) was 2.042 ± 0.0075 and the “normalized RNA/DNA level with ligand (log10)” value ((6R,S)-folinic acid [2]) was 2.04 ± 0.021.

GCUGUCACCGGUGCUUGGUACGUUAUAUUCAGCCGGUCUGAUGAGUCUCGGUCUAGACGAAACAGC [CGGUCU] was tested, and the “normalized RNA/DNA level without ligand (log10)” value ((6R,S)-folinic acid [1]) was 2.1 ± 0.035 and the “normalized RNA/DNA level with ligand (log10)” value ((6R,S)-folinic acid [2]) was 2.05 ± 0.049.

GCUGUCACCGGUGCUUGGUACGUUAUAUUCAGCCGGUCUGAUGAGUCUCGGUCCAGACGAAACAGC [CGGUCC] was tested, and the “normalized RNA/DNA level without ligand (log10)” value ((6R,S)-folinic acid [1]) was 2.066 ± 0.013 and the “normalized RNA/DNA level with ligand (log10)” value ((6R,S)-folinic acid [2]) was 2.03 ± 0.033.

GCUGUCACCGGUGCUUGGUACGUUAUAUUCAGCCGGUCUGAUGAGUCUUGGUUAAGACGAAACAGC [UGGUUA] was tested, and the “normalized RNA/DNA level without ligand (log10)” value ((6R,S)-folinic acid [1]) was 1.945 ± 0.013 and the “normalized RNA/DNA level with ligand (log10)” value ((6R,S)-folinic acid [2]) was 2.01 ± 0.071.

With GCUGUCACCGGUGCUUGGUACGUUAUAUUCAGCCGGUCUGAUGAGUCUUGGUGCAGACGAAACAGC [UGGUGC] the “normalized RNA/DNA level without ligand (log10)” value ((6R,S)-folinic acid [1]) was 2.02 ± 0.03 and the “normalized RNA/DNA level with ligand (log10)” value ((6R,S)-folinic acid [2]) was 2.02 ± 0.044.

In the case of GCUGUCACCGGUGCUUGGUACGUUAUAUUCAGCCGGUCUGAUGAGUCUUGGUCCAGACGAAACAGC [UGGUCC], the “normalized RNA/DNA level without ligand (log10)” value ((6R,S)-folinic acid [1]) is reported as 2.039 ± 0.0085 and the “normalized RNA/DNA level with ligand (log10)” value ((6R,S)-folinic acid [2]) is reported as 2.035 ± 0.016.

For GCUGUCACCGGUGCUUGGUACGUUAUAUUCAGCCGGUCUGAUGAGUCUUGGUCGAGACGAAACAGC [UGGUCG], the “normalized RNA/DNA level without ligand (log10)” value ((6R,S)-folinic acid [1]) was 1.844 ± 0.015 and the “normalized RNA/DNA level with ligand (log10)” value ((6R,S)-folinic acid [2]) was 1.99 ± 0.021.

For GCUGUCACCGGUGCUUGGUACGUUAUAUUCAGCCGGUCUGAUGAGUCUUGGUCUAGACGAAACAGC [UGGUCU], the “normalized RNA/DNA level without ligand (log10)” value ((6R,S)-folinic acid [1]) was 1.994 ± 0.015 and the “normalized RNA/DNA level with ligand (log10)” value ((6R,S)-folinic acid [2]) was 2.0325 ± 0.0019.

For GCUGUCACCGGUGCUUGGUACGUUAUAUUCAGCCGGUCUGAUGAGUCUGGGUUAAGACGAAACAGC [GGGUUA], the “normalized RNA/DNA level without ligand (log10)” value ((6R,S)-folinic acid [1]) was 2.052 ± 0.0032 and the “normalized RNA/DNA level with ligand (log10)” value ((6R,S)-folinic acid [2]) was 2.034 ± 0.01.

For GCUGUCACCGGUGCUUGGUACGUUAUAUUCAGCCGGUCUGAUGAGUCUAGGUGCAGACGAAACAGC [AGGUGC], the “normalized RNA/DNA level without ligand (log10)” value ((6R,S)-folinic acid [1]) was 2.0042 ± 0.0006 and the “normalized RNA/DNA level with ligand (log10)” value ((6R,S)-folinic acid [2]) was 2.01 ± 0.044.

With GCUGUCACCGGUGCUUGGUACGUUAUAUUCAGCCGGUCUGAUGAGUCUGGGUGUAGACGAAACAGC [GGGUGU] the “normalized RNA/DNA level without ligand (log10)” value ((6R,S)-folinic acid [1]) was 2.025 ± 0.011 and the “normalized RNA/DNA level with ligand (log10)” value ((6R,S)-folinic acid [2]) was 2.06 ± 0.049.

For GCUGUCACCGGUGCUUGGUACGUUAUAUUCAGCCGGUCUGAUGAGUCUGGGUGGAGACGAAACAGC [GGGUGG], the “normalized RNA/DNA level without ligand (log10)” value ((6R,S)-folinic acid [1]) was 2.056 ± 0.0092 and the “normalized RNA/DNA level with ligand (log10)” value ((6R,S)-folinic acid [2]) was 2.04 ± 0.043.

For GCUGUCACCGGUGCUUGGUACGUUAUAUUCAGCCGGUCUGAUGAGUCUCGGUGGAGACGAAACAGC [CGGUGG], the “normalized RNA/DNA level without ligand (log10)” value ((6R,S)-folinic acid [1]) was 1.93 ± 0.024 and the “normalized RNA/DNA level with ligand (log10)” value ((6R,S)-folinic acid [2]) was 1.99 ± 0.026.

For GCUGUCACCGGUGCUUGGUACGUUAUAUUCAGCCGGUCUGAUGAGUCUCGGUGCAGACGAAACAGC [CGGUGC], the “normalized RNA/DNA level without ligand (log10)” value ((6R,S)-folinic acid [1]) was 2.053 ± 0.0063 and the “normalized RNA/DNA level with ligand (log10)” value ((6R,S)-folinic acid [2]) was 2.007 ± 0.0042.

For GCUGUCACCGGUGCUUGGUACGUUAUAUUCAGCCGGUCUGAUGAGUCUCGGUGAAGACGAAACAGC [CGGUGA], the “normalized RNA/DNA level without ligand (log10)” value ((6R,S)-folinic acid [1]) was 2.029 ± 0.014 and the “normalized RNA/DNA level with ligand (log10)” value ((6R,S)-folinic acid [2]) was 2.04 ± 0.043.

GCUGUCACCGGUGCUUGGUACGUUAUAUUCAGCCGGUCUGAUGAGUCUGGGUCCAGACGAAACAGC [GGGUCC] was tested, and the “normalized RNA/DNA level without ligand (log10)” value ((6R,S)-folinic acid [1]) was 2.05 ± 0.022 and the “normalized RNA/DNA level with ligand (log10)” value ((6R,S)-folinic acid [2]) was 2.06 ± 0.04.

In the case of GCUGUCACCGGUGCUUGGUACGUUAUAUUCAGCCGGUCUGAUGAGUCUGGGUCUAGACGAAACAGC [GGGUCU], the “normalized RNA/DNA level without ligand (log10)” value ((6R,S)-folinic acid [1]) is reported as 2.064 ± 0.0032 and the “normalized RNA/DNA level with ligand (log10)” value ((6R,S)-folinic acid [2]) is reported as 2.06 ± 0.018.

GCUGUCACCGGUGCUUGGUACGUUAUAUUCAGCCGGUCUGAUGAGUCUCGGUUCAGACGAAACAGC [CGGUUC] was tested, and the “normalized RNA/DNA level without ligand (log10)” value ((6R,S)-folinic acid [1]) was 2.02 ± 0.0095 and the “normalized RNA/DNA level with ligand (log10)” value ((6R,S)-folinic acid [2]) was 2.01 ± 0.07.

With GCUGUCACCGGUGCUUGGUACGUUAUAUUCAGCCGGUCUGAUGAGUCUAGGUCUAGACGAAACAGC [AGGUCU] the “normalized RNA/DNA level without ligand (log10)” value ((6R,S)-folinic acid [1]) was 2.043 ± 0.0045 and the “normalized RNA/DNA level with ligand (log10)” value ((6R,S)-folinic acid [2]) was 2 ± 0.021.

With GCUGUCACCGGUGCUUGGUACGUUAUAUUCAGCCGGUCUGAUGAGUCUAGGUCGAGACGAAACAGC [AGGUCG] the “normalized RNA/DNA level without ligand (log10)” value ((6R,S)-folinic acid [1]) was 1.985 ± 0.013 and the “normalized RNA/DNA level with ligand (log10)” value ((6R,S)-folinic acid [2]) was 2.05 ± 0.043.

For GCUGUCACCGGUGCUUGGUACGUUAUAUUCAGCCGGUCUGAUGAGUCUAGGUCAAGACGAAACAGC [AGGUCA], the “normalized RNA/DNA level without ligand (log10)” value ((6R,S)-folinic acid [1]) was 1.967 ± 0.014 and the “normalized RNA/DNA level with ligand (log10)” value ((6R,S)-folinic acid [2]) was 2.01 ± 0.047.
